Measurements taken from patent US11007356B2, “Ingestible device for delivery of therapeutic agent to the gastrointestinal tract” (Progenity, Inc., priority 2018, dated 2021).
Values joined by “and” are separate entries in the source; they are usually repeats but may differ in a detail not shown here. Equal entries are not always repeated. Where two headings read alike, the source gives them in different places. Marks after values point to notes of the source that are not given here.

Key:
[1] = cited from earlier work
[2] = Dosing regimen model: required bioavailability for ingestible device (Tables 16, 17); conditions: for Eff Dose: approved dose x bioavailability of the approved route (Table 16); for Eff. Dose: baseline dose x bioavailability, SC (Table 17), assumed weight 70 kg
blood glucose = test: Euglycemic clamp procedure (PD) in swine (Example 3); type: in vivo, Yorkshire female swine
Protocol: (§1) Blood samples were kept on wet ice until centrifugation and separation of plasma. […] Glucose was monitored every five (5) minutes during the study by portable glucose analyzer (StatStrip (SS) hospital glucose monitoring system (Nova Biomedical, Waltham, Mass.)). At each time point, approximate 0.1 mL of blood was drawn and immediately placed on a glucose monitoring test strip, and the whole blood glucose concentration was measured by the SS in triplicate.
A euglycemic clamp procedure (ECP) was employed to compare pharmacokinetics and pharmacodynamics of regular human Insulin (NOVOLIN® R) delivered subcutaneously (SC) in the neck versus intra-jejunally (IJ) by the jet delivery device in the small intestine. ECP was used to quantify the amount of glucose required to maintain normoglycemia after exogenous bolus of insulin. […] The animals were anesthetized for the entire ECP.

[3] = Insulin PK after SC or intra-jejunal (IJ) jet delivery in swine (Example 3); type: in vivo, Yorkshire female swine; conditions: for Cmax of blood insulin, Average / Tmax of blood insulin, Average: average of animals; for Cmax of blood insulin / Tmax of blood insulin: individual animals
Protocol: A total of 18 Yorkshire female swine in good health and weighing 60-70 kg each were included in this study. Swine were divided into two groups with 9 animals per group. […] A sham surgical laparotomy was performed. […] The jet delivery device was configured with the single nozzle in an axial orientation.
Swine were divided into two groups with 9 animals per group. […] In all 18 animals, a laparotomy procedure was performed to expose the abdominal cavity. Animals remained under anesthesia during the entire procedure for the PK/PD study.
For the laparotomy in group 02, a small segment of the jejunal mucosa and serosa was exposed by midline laparotomy and the jet delivery device was inserted through antimesenteric incision.
as §1
The animals were anesthetized for the entire ECP.

[4] = pig, in vivo
[5] = IJ administration via jet delivery device, ~40 U
[6] = SC administration group compared with IJ administration group

CC[C@H](C)[C@H](NC(=O)[C@H](Cc1ccccc1)NC(=O)[C@H](CCC(=O)O)NC(=O)[C@H](CCCCNC(=O)COCCOCCNC(=O)COCCOCCNC(=O)CC[C@H](NC(=O)CCCCCCCCCCCCCCCCC(=O)O)C(=O)O)NC(=O)[C@H](C)NC(=O)[C@H](C)NC(=O)[C@H](CCC(N)=O)NC(=O)CNC(=O)[C@H](CCC(=O)O)NC(=O)[C@H](CC(C)C)NC(=O)[C@H](Cc1ccc(O)cc1)NC(=O)[C@H](CO)NC(=O)[C@H](CO)NC(=O)[C@@H](NC(=O)[C@H](CC(=O)O)NC(=O)[C@H](CO)NC(=O)[C@@H](NC(=O)[C@H](Cc1ccccc1)NC(=O)[C@@H](NC(=O)CNC(=O)[C@H](CCC(=O)O)NC(=O)C(C)(C)NC(=O)[C@@H](N)Cc1cnc[nH]1)[C@@H](C)O)[C@@H](C)O)C(C)C)C(=O)N[C@@H](C)C(=O)N[C@@H](Cc1c[nH]c2ccccc12)C(=O)N[C@@H](CC(C)C)C(=O)N[C@H](C(=O)N[C@@H](CCCNC(=N)N)C(=O)NCC(=O)N[C@@H](CCCNC(=N)N)C(=O)NCC(=O)O)C(C)C [Semaglutide, semaglutide]
Bio Avail (Approved Dosing Info) ([1]; in vivo, sc): 89%

CC[C@H](C)[C@H](NC(=O)[C@H](CCC(=O)O)NC(=O)[C@H](CO)NC(=O)[C@@H](NC(=O)[C@@H](N)CO)C(C)C)C(=O)N[C@@H](CCC(N)=O)C(=O)N[C@@H](CC(C)C)C(=O)N[C@@H](CCSC)C(=O)N[C@@H](Cc1cnc[nH]1)C(=O)N[C@@H](CC(N)=O)C(=O)N[C@@H](CC(C)C)C(=O)NCC(=O)N[C@@H](CCCCN)C(=O)N[C@@H](Cc1cnc[nH]1)C(=O)N[C@@H](CC(C)C)C(=O)N[C@@H](CC(N)=O)C(=O)N[C@@H](CO)C(=O)N[C@@H](CCSC)C(=O)N[C@@H](CCC(=O)O)C(=O)N[C@@H](CCCN=C(N)N)C(=O)N[C@H](C(=O)N[C@@H](CCC(=O)O)C(=O)N[C@@H](Cc1c[nH]c2ccccc12)C(=O)N[C@@H](CC(C)C)C(=O)N[C@@H](CCCN=C(N)N)C(=O)N[C@@H](CCCCN)C(=O)N[C@@H](CCCCN)C(=O)N[C@@H](CC(C)C)C(=O)N[C@@H](CCC(N)=O)C(=O)N[C@@H](CC(=O)O)C(=O)N[C@H](C(=O)N[C@@H](Cc1cnc[nH]1)C(=O)N[C@@H](CC(N)=O)C(=O)N[C@@H](Cc1ccccc1)C(=O)O)C(C)C)C(C)C [teriparatide]
Eff Dose [2]: 0.02 mg
Bio Avail (Approved Dosing Info) ([1]; SC administration): 95%

Novolin® R: regular human insulin (NOVOLIN® R)
mean dextrose infusion rate, IJ vs SC (blood glucose; first 70 minutes after administration): higher in the IJ administration group
mean dextrose infusion rate, IJ vs SC (blood glucose; from 75 minutes to 420 minutes post-administration): higher in the SC administration group
Cmax of blood insulin, Average [3, 5]: 77.40 uIU/mL
Tmax of blood insulin, Average [3, 5]: 0.9272 h
Cmax of blood insulin [3, 5]: 40.93 uIU/mL and 96.77 uIU/mL and 5.03 uIU/mL and 7.96 uIU/mL and 48.77 uIU/mL and 85.38 uIU/mL and 207.96 uIU/mL and 126.39 uIU/mL
Tmax of blood insulin [3, 5]: 20 min and 50 min and 90 min (2×) and 40 min (3×)
AUC of blood insulin, SC vs IJ [3, 6]: higher than that of the IJ administration group
maximum plasma concentration Cmax, SC vs IJ [3, 6]: higher than that of the IJ administration group
Cmax of blood insulin, Average ([3]; SC administration): 202.94 uIU/mL
Tmax of blood insulin, Average ([3]; SC administration): 1.452 h
Cmax of blood insulin ([3]; SC administration): 451.00 uIU/mL and 60.74 uIU/mL and 354.00 uIU/mL and 356.60 uIU/mL and 65.71 uIU/mL and 59.18 uIU/mL and 73.34 uIU/mL
Tmax of blood insulin ([3]; SC administration): 50 min (2×) and 180 min and 105 min and 30 min and 120 min
time to maximum plasma concentration (Tmax) ([3]; jejunum administration group (jet delivery device)): 0.9272 h

alirocumab
Eff Dose [2]: 63.8 mg
Bio Avail (Approved Dosing Info) ([1]; in vivo, sc): 85%

certolizumab pegol
Eff Dose [2]: 160 mg
Bio Avail (Approved Dosing Info) ([1]; in vivo, sc): 80%

denosumab
Eff Dose [2]: 36.6 mg
Bio Avail (Approved Dosing Info) ([1]; in vivo, sc): 61%

dulaglutide
Eff Dose [2]: 0.49 mg
Bio Avail (Approved Dosing Info) ([1]; in vivo, sc): 65%
Bioavailability relative to IV [4]: 26.51 ± 6.55% ^a
Bioavailability relative to SC [4]: 49.11 ± 0.08% ^a
(AUC)T0-T240 h ± SEM ([4]; 1.2 mg): 4355.86 ± 1094.57^a ng.hr/mL
AUCID (± SEM) ([4]; 1.2 mg): 3890.00 ± 94.73 ng·h/mL
Tmax ([4]; 1.2 mg): 8 h
(AUC)T0-T240 h ± SEM ([4]; iv, 1.2 mg): 16429.33 ± 600.93 ng·h/mL
Tmax ([4]; iv, 1.2 mg): 1 h
(AUC)T0-T240 h ± SEM ([4]; sc, 1.2 mg): 8869 ± 887.33 ng·h/mL
Tmax ([4]; sc, 1.2 mg): 6 h

etanercept
Eff Dose [2]: 29.0 mg
Bio Avail (Approved Dosing Info) ([1]; in vivo, sc): 58%

glucagon
Eff. Dose [2]: 2.0 mg
Bioavail. (Baseline dose) ([1]; in vivo, sc): 100.0%

golimumab
Eff Dose [2]: 25.5 mg
Bio Avail (Approved Dosing Info) ([1]; in vivo, sc): 51%

natalizumab
Eff Dose [2]: 300 mg
Bio Avail (Approved Dosing Info) ([1]; in vivo, iv): 100%

secukinumab
Eff Dose [2]: 109.5 mg
Bio Avail (Approved Dosing Info) ([1]; in vivo, sc): 73%

somatropin
Eff. Dose [2]: 0.8 mg
Bioavail. (Baseline dose) ([1]; in vivo, sc): 80.5%

tocilizumab
Eff Dose [2]: 129.6 mg
Bio Avail (Approved Dosing Info) ([1]; in vivo, sc): 80%

ustekinumab
Eff Dose [2]: 35.1 mg
Bio Avail (Approved Dosing Info) ([1]; in vivo, sc): 78%

vedolizumab
Eff Dose [2]: 300 mg
Bio Avail (Approved Dosing Info) ([1]; in vivo, iv): 100%
